Substitutions are numbered along the chain they refer to. Numbers in names are those of the source.

Series [1] concerns the molecule itself. In words: crystal structure.
Series [2] concerns the molecule itself. In words: SEC-MALS.
Series [3] concerns the molecule itself. The series is described as follows: non-reducing SDS-PAGE.

B1: mouse 4-1BB ligand ectodomain (amino acids 140-309) without purification tag, co-expressed with m4-1BB for the complex structure (domain or fragment, UniProt P41274 140-309, looked up)
chain: TTQQGSPVFAKLLAKNQASLCNTTLNWHSQDGAGSSYLSQGLRYEEDKKELVVDSPGLYYVFLELKLSPTFTNTGHKVQGWVSLVLQAKPQVDDFDNLALTVELFPCSMENKLVDRSWSQLLLLKAGHRLSVGLRAYLHGAQDAYRDWELSYPNTTSFGLFLVKPDNPWE
modifications: disulfide linked dimer
On to B1, for which the “stoichiometry N” value in series [1] was 2.

B2: mouse 4-1BB ligand ectodomain (amino acids 140-309) C246S (domain or fragment, UniProt P41274 140-309, looked up)
chain: B1 chain with C107S
On to B2, for which, in series [2], the “stoichiometry N” value is 2.

B3: mouse 4-1BB ligand ectodomain (amino acids 140-309) S256F (domain or fragment, UniProt P41274 140-309, looked up)
chain: B1 chain with S117F
modifications: inter-molecular disulfide through Cys 246
With B3, the “stoichiometry N” value in series [3] was determined as 2.
